Measurements reported in patent US20160136234A1.

Key:
Assay in all cases: cell-based or functional assay
DAPK1 (h) (human) = DAPK1 (h) (human) (UniProt P53355)
FGFR1(V561M) (h) (human) = FGFR1(V561M) (h) (human) (UniProt P11362)
LIMK1 (h) (human) = LIMK1 (h) (human) (UniProt P53667)
EphA7 (h) (human) = EphA7 (h) (human) (UniProt Q15375)
DDR2 (h) (human) = biological target: T1, DDR2 (h) (human) (UniProt Q16832)
T1 sequence (looked up): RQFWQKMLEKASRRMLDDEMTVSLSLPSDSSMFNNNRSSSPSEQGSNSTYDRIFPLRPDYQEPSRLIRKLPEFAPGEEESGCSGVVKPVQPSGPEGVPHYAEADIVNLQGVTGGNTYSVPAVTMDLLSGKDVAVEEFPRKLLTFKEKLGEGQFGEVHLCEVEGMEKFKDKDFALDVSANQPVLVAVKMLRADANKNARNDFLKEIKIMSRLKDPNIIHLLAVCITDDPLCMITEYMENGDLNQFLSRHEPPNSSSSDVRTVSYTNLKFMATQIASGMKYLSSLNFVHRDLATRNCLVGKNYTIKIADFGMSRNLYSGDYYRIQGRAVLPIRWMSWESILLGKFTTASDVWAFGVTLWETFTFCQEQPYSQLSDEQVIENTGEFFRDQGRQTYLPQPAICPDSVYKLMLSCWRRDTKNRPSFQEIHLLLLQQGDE

[1] = biological target: CDK9/cyclin T1 (h) (human) (UniProt P50750)
Tie2 (h) (human) = Tie2 (h) (human) (UniProt Q02763)
Chain of Tie2 (h) (human) (Q02763 771-1124 limits assumed): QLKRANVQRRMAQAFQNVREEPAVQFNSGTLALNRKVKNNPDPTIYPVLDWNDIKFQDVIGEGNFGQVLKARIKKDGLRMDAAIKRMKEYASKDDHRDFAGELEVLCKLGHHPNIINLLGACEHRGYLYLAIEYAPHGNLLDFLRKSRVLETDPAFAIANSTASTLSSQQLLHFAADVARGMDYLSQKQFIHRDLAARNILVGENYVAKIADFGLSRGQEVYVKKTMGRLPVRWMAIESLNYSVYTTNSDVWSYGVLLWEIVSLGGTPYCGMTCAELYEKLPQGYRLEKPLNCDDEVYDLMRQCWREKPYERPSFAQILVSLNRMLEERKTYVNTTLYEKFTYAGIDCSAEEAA

IKKα (h) (human) = biological target: T2, IKKα (h) (human) (UniProt O15111)
T2 sequence (looked up): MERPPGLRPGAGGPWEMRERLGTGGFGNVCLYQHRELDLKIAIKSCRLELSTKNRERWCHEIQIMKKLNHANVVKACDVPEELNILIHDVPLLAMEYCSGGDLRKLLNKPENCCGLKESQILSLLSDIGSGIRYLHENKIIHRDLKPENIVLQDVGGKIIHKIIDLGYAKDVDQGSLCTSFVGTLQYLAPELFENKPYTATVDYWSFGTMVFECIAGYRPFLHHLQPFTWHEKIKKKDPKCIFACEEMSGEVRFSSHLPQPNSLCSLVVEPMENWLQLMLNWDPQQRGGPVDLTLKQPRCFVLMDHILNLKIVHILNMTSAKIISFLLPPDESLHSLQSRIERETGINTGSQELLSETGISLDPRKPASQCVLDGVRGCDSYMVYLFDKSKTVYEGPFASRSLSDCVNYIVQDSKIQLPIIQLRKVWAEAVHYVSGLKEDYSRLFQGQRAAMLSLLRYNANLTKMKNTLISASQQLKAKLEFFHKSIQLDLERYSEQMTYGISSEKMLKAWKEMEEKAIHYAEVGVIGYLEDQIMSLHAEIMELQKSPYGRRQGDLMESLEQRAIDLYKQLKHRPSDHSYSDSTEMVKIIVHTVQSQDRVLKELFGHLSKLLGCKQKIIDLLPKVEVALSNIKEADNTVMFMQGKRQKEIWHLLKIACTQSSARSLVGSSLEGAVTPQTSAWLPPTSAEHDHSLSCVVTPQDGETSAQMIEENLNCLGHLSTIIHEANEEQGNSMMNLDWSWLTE

PAK4 (h) (human) = PAK4 (h) (human) (UniProt O96013)
MEK1 (h) (human) = MEK1 (h) (human) (UniProt Q02750)
[2] = biological target: EGFR(T790M, L858R) (h) (human) (UniProt P00533)
Arg (h) (human) = Arg (h) (human) (UniProt P42684)
Chain of Arg (h) (human) (P42684 38-1182 limits assumed): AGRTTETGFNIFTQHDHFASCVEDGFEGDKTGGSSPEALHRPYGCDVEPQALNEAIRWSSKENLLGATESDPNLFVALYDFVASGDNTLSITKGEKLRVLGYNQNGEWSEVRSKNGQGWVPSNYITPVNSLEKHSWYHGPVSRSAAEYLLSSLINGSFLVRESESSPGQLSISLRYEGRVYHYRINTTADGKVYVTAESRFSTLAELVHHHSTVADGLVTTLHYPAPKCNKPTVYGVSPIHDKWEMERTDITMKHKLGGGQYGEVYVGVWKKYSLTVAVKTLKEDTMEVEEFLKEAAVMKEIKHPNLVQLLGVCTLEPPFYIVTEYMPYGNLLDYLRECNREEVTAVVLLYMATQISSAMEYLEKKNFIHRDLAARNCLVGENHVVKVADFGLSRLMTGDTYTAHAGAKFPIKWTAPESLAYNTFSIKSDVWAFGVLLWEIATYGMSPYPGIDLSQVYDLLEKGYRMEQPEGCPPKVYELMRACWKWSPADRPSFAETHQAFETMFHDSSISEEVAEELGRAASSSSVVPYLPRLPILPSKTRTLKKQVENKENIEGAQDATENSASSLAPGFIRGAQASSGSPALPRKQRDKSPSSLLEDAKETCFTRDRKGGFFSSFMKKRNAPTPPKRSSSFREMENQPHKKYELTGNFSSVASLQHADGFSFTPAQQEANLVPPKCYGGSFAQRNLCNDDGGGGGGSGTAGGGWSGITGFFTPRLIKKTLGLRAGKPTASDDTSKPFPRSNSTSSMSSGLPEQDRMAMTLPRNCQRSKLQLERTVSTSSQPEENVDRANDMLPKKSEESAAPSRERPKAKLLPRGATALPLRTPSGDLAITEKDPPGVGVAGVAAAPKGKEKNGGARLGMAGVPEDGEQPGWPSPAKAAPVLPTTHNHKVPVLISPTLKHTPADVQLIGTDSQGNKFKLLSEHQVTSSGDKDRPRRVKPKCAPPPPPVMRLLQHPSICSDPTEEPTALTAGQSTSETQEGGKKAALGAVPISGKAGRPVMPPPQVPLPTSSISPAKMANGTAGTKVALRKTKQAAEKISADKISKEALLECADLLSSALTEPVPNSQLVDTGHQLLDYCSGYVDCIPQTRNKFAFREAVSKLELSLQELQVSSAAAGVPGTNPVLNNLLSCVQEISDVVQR

EGFR (h) (human) = EGFR (h) (human) (UniProt P00533)
ALK4 (h) (human) = biological target: T3, ALK4 (h) (human) (UniProt P36896)
T3 sequence (looked up): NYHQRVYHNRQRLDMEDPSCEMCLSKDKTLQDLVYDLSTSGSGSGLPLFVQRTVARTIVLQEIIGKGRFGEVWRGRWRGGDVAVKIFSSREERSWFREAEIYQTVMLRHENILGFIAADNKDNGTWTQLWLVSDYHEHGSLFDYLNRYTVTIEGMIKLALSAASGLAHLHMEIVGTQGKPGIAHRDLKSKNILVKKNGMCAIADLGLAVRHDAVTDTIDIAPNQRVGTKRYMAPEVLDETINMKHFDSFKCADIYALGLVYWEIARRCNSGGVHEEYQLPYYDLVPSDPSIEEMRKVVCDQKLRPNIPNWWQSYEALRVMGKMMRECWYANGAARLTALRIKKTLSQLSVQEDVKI

CaMKIV (h) (human) = CaMKIV (h) (human) (UniProt Q16566)
CK1δ (h) (human) = CK1δ (h) (human) (UniProt P48730)
PDK1 (h) (human) = biological target: T4, PDK1 (h) (human) (UniProt O15530)
T4 sequence (looked up): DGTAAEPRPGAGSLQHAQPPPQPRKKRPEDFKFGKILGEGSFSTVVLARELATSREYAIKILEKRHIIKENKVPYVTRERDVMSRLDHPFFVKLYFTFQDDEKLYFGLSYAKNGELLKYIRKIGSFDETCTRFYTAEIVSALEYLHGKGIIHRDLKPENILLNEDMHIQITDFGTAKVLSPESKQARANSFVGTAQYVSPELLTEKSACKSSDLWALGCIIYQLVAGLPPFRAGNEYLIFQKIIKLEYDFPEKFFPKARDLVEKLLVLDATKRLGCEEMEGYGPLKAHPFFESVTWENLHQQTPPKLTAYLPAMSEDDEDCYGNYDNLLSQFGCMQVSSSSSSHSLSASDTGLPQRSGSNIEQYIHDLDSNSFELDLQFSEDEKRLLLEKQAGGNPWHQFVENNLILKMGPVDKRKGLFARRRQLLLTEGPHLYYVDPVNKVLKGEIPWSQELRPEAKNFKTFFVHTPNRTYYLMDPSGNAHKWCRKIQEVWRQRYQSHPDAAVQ

Ros (h) (human) = Ros (h) (human) (UniProt P08922)
Chain of Ros (h) (human) (P08922 1883-2347 limits assumed): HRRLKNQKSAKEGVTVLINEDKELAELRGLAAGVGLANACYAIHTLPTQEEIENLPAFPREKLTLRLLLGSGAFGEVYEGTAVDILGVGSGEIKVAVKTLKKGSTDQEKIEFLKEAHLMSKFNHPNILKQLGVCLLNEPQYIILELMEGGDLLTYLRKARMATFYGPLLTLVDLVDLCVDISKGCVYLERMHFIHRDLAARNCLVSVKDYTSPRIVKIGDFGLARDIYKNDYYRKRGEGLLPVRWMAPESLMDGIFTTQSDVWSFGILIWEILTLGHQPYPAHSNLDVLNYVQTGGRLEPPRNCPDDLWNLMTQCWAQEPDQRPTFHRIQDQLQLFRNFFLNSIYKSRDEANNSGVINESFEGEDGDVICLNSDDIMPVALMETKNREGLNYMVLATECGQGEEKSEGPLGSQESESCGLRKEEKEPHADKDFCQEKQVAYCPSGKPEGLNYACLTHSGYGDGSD

CDK3/cyclinE (h) (human) = CDK3/cyclinE (h) (human) (UniProt Q00526)
Ron (h) (human) = Ron (h) (human) (UniProt Q04912)
Chain of Ron (h) (human) (Q04912 983-1400 limits assumed): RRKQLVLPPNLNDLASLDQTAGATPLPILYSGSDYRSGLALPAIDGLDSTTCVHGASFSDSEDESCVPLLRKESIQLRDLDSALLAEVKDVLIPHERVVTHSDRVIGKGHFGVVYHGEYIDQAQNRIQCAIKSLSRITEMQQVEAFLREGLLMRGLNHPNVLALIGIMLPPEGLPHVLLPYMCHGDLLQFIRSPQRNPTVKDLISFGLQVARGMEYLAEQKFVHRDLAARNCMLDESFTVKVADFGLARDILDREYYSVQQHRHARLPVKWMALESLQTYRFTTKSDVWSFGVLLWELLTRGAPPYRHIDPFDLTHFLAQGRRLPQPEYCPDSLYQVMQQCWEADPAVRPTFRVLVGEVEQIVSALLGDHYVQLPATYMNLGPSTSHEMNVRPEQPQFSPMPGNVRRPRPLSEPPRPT

Chain of FGFR1(V561M) (h) (human) (P11362 456-765 V561M limits assumed): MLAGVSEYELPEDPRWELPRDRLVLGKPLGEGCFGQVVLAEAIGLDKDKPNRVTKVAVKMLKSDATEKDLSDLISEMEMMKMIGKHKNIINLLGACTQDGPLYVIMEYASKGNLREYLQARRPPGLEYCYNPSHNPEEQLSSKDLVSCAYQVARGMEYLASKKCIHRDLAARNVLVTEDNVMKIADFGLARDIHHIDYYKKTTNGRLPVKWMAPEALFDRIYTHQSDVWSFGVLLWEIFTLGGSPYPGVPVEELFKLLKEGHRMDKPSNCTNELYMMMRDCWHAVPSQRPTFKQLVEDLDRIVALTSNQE

Substance: MMI-0300 (peptide)
- % activity at 100 µM (DAPK1 (h) (human)): 46%
- % activity at 100 µM (FGFR1(V561M) (h) (human)): 74%
- % activity at 100 µM (LIMK1 (h) (human)): 88%
- % activity at 100 µM (EphA7 (h) (human)): 159%
- % activity at 100 µM (DDR2 (h) (human)): 94%
- % activity at 100 µM [1]: 91%
- % activity at 100 µM (Tie2 (h) (human)): 26%
- % activity at 100 µM (IKKα (h) (human)): 93%
- % activity at 100 µM (PAK4 (h) (human)): 94%
- % activity at 100 µM (MEK1 (h) (human)): 77%
- % activity at 100 µM [2]: 85%
- % activity at 100 µM (Arg (h) (human)): 72%
- % activity at 100 µM (EGFR (h) (human)): 21%
- % activity at 100 µM (ALK4 (h) (human)): 140%
- % activity at 100 µM (CaMKIV (h) (human)): 17%
- % activity at 100 µM (CK1δ (h) (human)): 92%
- % activity at 100 µM (PDK1 (h) (human)): 135%
- % activity at 100 µM (Ros (h) (human)): 95%
- % activity at 100 µM (CDK3/cyclinE (h) (human)): 94%
- % activity at 100 µM (Ron (h) (human)): 93%
